Assay: soluble on expression in E. coli; label from the status in PepcDB or PDB records

ADVSAAVGATGQSGMTYRLGLSWDWDKSWWQTSTGRLTGYWDAGYTYWEGGDEGAGKHSLSFAPVFVYEFAGDSIKPFIEAGIGVAAFSGTRVGDQNLGSSLNFEDRIGAGLKFANGQSVGVRAIHYSNAGLKQPNDGIESYSLFYKIPI
soluble on expression in E. coli: soluble

MTVTAPNALNFECETGNYHTFCPISCVAWLYQKIEDSFFLVIGTKTCGYFLQNAMGVMIFAEPRYAMAELEEGDISAQLNDYEELKRLCLEIKRDRNPSVIVWIGTCTTEIIKMDLEGLAPKLEAEIGIPIVVARANGLDYAFTQGEDTVLAAMAARCPTSTAISDPEERNPIQRLLNFGKKKEEVQAQSSQYHPHPPLVLFGSLPDPVVTQLTLELKKQGIKVSGWLPAKRYTELPVIDEGYYVAGVNPFLSRTATTLIRRRKCQLITAPFPIGPDGTRTWIEQICATFGIQPQGLAEREAETWQKLSDYLELVRGKSVFFMGDNLLEISLARFLIRCGMRVLEIGIPYMDKRYQAAELALLSQTCAEMGHPLPTIVEKPDNYNQLQRIKALQPDLVITGMAHANPLEARGISTKWSVEFTFAQIHGFGNARDILELVTRPLRRNQALAGLGWQKLVAH
soluble on expression in E. coli: soluble

MAHHHHHHMEDGEALDLQDALKPEVKERPVRLIKIERHDGTKAFLNSVIEMAQVVLDNMPPDACYKDIAIKLKTKLDEVEKGTWHVIVGSHFGANVTNDSETLVNFKIDEMHILLFRSGPPERPMSLNDEGS
soluble on expression in E. coli: soluble

MGQLIDGVWHDTWYDTKSTGGKFQRSASAFRNWLTADGAPGPTGTGGFIAEKDRYHLYVSLACPWAHRTLIMRKLKGLEPFISVSVVNPLMLENGWTFDDSFPGATGDTLYQNEFLYQLYLHADPHYSGRVTVPVLWDKKNHTIVSNESAEIIRMFNTAFDALGAKAGDYYPPALQTKIDELNGWIYDTVNNGVYKAGFATSQEAYDEAVAKVFESLARLEQILGQHRYLTGNQLTEADIRLWTTLVRFDPVYVTHFKCDKHRISDYLNLYGFLRDIYQMPGIAETVNFDHIRNHYFRSHKTINPTGIISIGPWQDLDEPHGRDVRFGLEHHHHHH
soluble on expression in E. coli: soluble

DITGIPTGFNELDKMTAGFQRNDLIIVAARPSVGKTAFALNIAQNVATKTDENVAIFSLEMGAEQLVMRMLCAEGNINAQNLRTGALTSDDWQKLTIAMGTLSNSGIYIDDTPGVRVNEIRSKCRRLKQETGLGMIVIDYLQLIAGSGRGGENRQQEVSEISRSLKALARELEVPVIALSQLSRSVEQRQDKRPMMSDI
soluble on expression in E. coli: not soluble

VSEIKTLVTFFGGTGDLAKRKLYPSVFNLYKKGYLQKHFAIVGTARQALNDDEFKQLVRDSIKDFTDDQAQAEAFIEHFSYRAHDVTDAASYAVLKEAIEEAADKFDIDGNRIFYMSVAPRFFGTIAKYLKSEGLLADTGYNRLMIEKPFGTSYDTAAELQNDLENAFDDNQLFRIDHYLGKEMVQNIAALRFGNPIFDAAWNKDYIKNVQVTLCEVLGVEERAGYYDTAGALLDMIQNHTMQIVGWLAMEKPESFTDKDIRAAKNAAFNALKIYDEAEVNKYFVRAQYGAGDSADFKPYLEELDVPADSKNNTFIAGELQFDLPRWEGVPFYVRSGKRLAAKQTRVDIVFKAGTFNFGSEQEAQEAVLSIIIDPKGAIELKLNAKSVEDAFNTRTIDLGWTVSDEDKKNTPEPYERMIHDTMNGDGSNFADWNGVSIAWKFVDAISAVYTADKAPLETYKSGSMGPEASDKLLAANGDAWVFKG
soluble on expression in E. coli: soluble

NYAPAVAEAFYRGIPLVAVTADRPAEWIDQDEGQTIRQEGAMAGFVKSYCSLRAEFDTSASAWYANRRLNEVLNHALMPRRGPVHINMSFCEPLYGTSSGYSGKERAITFVRERQELPEEVWDMLVKRFLEAPRVMIVAGFYPPDEDVSAALQDICKFPHTVLFAESLSNIRTDTGICTADRVLAAAGEDESLYPELLISFGGSLISRMLKTFLRRAKPAEHWGIDERFPAPDTFCALTHHICTGASGFWKEFAGRLKDKAPESLSPEGISYAGSWQKIKRKADLLHRTFMADAGWSDLKAFEVILRHIPHDAALHAANSTPVRYLQLFEHAHYAGGEWSNRGTNGIEGATSTAMGFSE
soluble on expression in E. coli: not soluble

FDAVPDLIAILDTEYRIVRANRAMAARLGITPEECVGLTCYRVIHGTDEPPSFCPYRQLLKDGIEHTEEVREDSLGGDFILSVLPLHDSKGKIIGCTHFARDIN
soluble on expression in E. coli: not soluble

MGSDKIHHHHHHMNAMTQVSPLLEMRGICKTFPGVKALDDVSFDIYPGEVHMLLGENGAGKSSLMKVLCGVYVADAGEFHHQGQRVEVSGPADTMRLGIAVIFQEFSLVPYLDIAQNIFLGREPRGRVPGSVDHAKMHAEARRLLDTLGMDISTHTPVHRLGVAQQQMIEIAKALSQNARILVLDEPTAALSERETEKLFGVIARLKADGVSMIYISHRMAEVFALGDRITVMRDGRKVGSYMPGDATPDELVARMVGRKVDMGYTRTRGGPVGEVALDMQGVSADNGIDDITLQVRAGEIVGLAGLVGSGRSEVARAVFGADPVRAGEIRIFGKSMRGGPDKARALGAALIPESRKTEGLALIRSVRDNLLLAGLRRAFPAHWYRSGKAAQLSTREIGRLRIATPSGDQLAQFLSGGNQQKIVIGKWLVAESRLFIFDEPTRGIDVGAKAEIFALIDGLVKQGAAVLLISSELPEIINVCDRTYVMRGGRVAGELAHDAMTEESILQLGMNDA
soluble on expression in E. coli: not soluble

MAHHHHHHMFSRGAAATAMAKVSRLVSPRLRIIHRDYLTRRGGRTHQRCSAVAVDYTPTYFATYKSDPGQCPRLIDAEAVHGDEQAFWSARRDFYRGGASRSYYPAWDRQAQALIMLTREVPRIPQEAAFRLFTLGLKMMLLPRLVAGVELMLPSWVTMNAESVLNEGLEGKVAEADGDGKATGAAADAAALPSASSAGANEDSGSANAEKR
soluble on expression in E. coli: soluble

MSLSITVLADIHLDERYIETGSQEVFCRENQDRPEAKYSLPGCDSSESLVDAALASLQKEGPYNVMVVLGDIGPHSSESPEMTQRAIKAIADKLRRLFINKPPEQEMIILPVIGNNDVFPTYAVPTEDGDPQLLFVADQFKDLMTTEGYRQFQRRGYYSVPLSKHRVTFLVINANYYSVRHRELGEDPADQFKWVENQMIEAKAKGYRVILISHIPFGVNVYDESEALHSQYTDRIRSILRRYASTVLACLYGHYHSAYPLVLSAGEEPLVPMFICPSIAPSNYNNPGYYVFHISPLHEVDYDHYALNIEAANMQHREMHNSTELASFDCLYRFSQRYRPWLGLRALPTAQNIAHLYEHMLNDDFVWYQVRAATTSMLSERRLDFLQMAVDKAFMDAYNLSNEGHHHHHH
soluble on expression in E. coli: soluble

MNSASFLQSRLISRSFLVRRSLKRYSGLAKPYTFQQPTIYALSTPANQTSAIAIIRISGTHAKYIYNRLVDSSTVPPIRKAILRNIYSPSSCSVKPHDQKESKILLDTSLLLYFQAPYSFTGEDVLELHVHGGKAVVNSILKAIGSLHDRSSGKDIRFALPGDFSRRAFQNGKFDLTQLEGIKDLIDSETESQRRSALSSFNGDNKILFENWRETIIENMAQLTAIIDFADDNSQEIQNTDEIFHNVEKNIICLRDQIVTFMQKVEKSTILQNGIKLVLLGAPNVGKSSLVNSLTNDDISIVSDIPGTTRDSIDAMINVNGYKVIICDTAGIREKSSDKIEMLGIDRAKKKSVQSDLCLFIVDPTDLSKLLPEDILAHLSSKTFGNKRIIIVVNKSDLVSDDEMTKVLNKLQTRLGSKYPILSVSCKTKEGIESLISTLTSNFESLSQSSADASPVIVSKRVSEILKNDVLYGLEEFFKSKDFHNDIVLATENLRYASDGIAKITGQAIGIEEILDSVFSKFCIGK
soluble on expression in E. coli: not soluble

GPGSMSFKPTISVHATPQELSAAGCRKIVEIIETSGSQQWPLSIALAGGSTPKMTYARLHDEHLNLLREKRALRFFMGDERMVPADSTDSNYNMAREVLLHDIPDDLVFPFDTSAVTPSAEATSADAMRVAEAYGKQLASLLPLKSVGEAGAKVPVFDVVLLGLGSDGHTASIFPGSQAEKETDGKVVVSVGFPSETMKPKVWRVTLSPATIMQARNVIVLATGAEKKWVVDGILADTAHKAPVARFLRGCEGNVSFLLDKEIAENLAKF
soluble on expression in E. coli: soluble

MLGAIAYTGNKQSLLPELKSHFPKYNRFVDLFCGGLSVSLNVNGPVLANDIQEPIIEMYKRLINVSWDDVLKVIKQYKLSKTSKEEFLKLREDYNKTRDPLLLYVLHFHGFSNMIRINDKGNFTTPFGKRTINKNSEKRFNHFKQNCDKIIFSSLHFKDVKILDGDFVYVDPPYLITVADYNKFWSEDEEKDLLNLLDSLNDRGIKFGLSNVLEHHGKENTLLKEWSKKYNVKHLNKKYVFNIYHSKEKNGTDEVYIFN
soluble on expression in E. coli: soluble
